Assay [1] concerns the target T1, mouse E-cadherin (form in the assay not stated) (mouse, UniProt P09803 157-709, limits assumed).
T1 construct: neither place states the form; also called the mouse E-cadherin
T1 sequence (looked up): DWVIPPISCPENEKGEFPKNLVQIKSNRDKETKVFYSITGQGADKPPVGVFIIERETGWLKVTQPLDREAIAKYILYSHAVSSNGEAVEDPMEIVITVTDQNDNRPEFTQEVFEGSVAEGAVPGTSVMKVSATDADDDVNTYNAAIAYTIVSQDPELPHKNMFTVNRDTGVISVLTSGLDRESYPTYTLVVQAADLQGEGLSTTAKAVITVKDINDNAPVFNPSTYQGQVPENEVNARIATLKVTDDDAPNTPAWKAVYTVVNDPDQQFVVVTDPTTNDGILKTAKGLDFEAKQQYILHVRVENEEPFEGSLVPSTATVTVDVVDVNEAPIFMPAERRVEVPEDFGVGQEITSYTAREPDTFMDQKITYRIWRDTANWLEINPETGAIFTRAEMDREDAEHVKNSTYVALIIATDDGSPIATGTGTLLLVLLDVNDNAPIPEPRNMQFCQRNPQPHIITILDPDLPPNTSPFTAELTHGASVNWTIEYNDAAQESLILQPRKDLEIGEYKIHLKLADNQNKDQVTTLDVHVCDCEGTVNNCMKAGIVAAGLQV
Nature of the assay: not described.

The target in assay [2] is T1, mouse E-cadherin (form in the assay not …). Nature of the assay: ELISA of hybridomas. (In general: An ELISA detects its analyte on a solid surface through an enzyme-linked reagent.)
Assay [3] addresses T2, mouse E-cadherin on cells (endogenous on 4T1 and Py2T cells; expressed in colo205 cells) (mouse, UniProt P09803 157-884).
T2 construct: whole, on cells; also called endogenous mouse E-cadherin; mE-cadherin
T2 sequence (looked up): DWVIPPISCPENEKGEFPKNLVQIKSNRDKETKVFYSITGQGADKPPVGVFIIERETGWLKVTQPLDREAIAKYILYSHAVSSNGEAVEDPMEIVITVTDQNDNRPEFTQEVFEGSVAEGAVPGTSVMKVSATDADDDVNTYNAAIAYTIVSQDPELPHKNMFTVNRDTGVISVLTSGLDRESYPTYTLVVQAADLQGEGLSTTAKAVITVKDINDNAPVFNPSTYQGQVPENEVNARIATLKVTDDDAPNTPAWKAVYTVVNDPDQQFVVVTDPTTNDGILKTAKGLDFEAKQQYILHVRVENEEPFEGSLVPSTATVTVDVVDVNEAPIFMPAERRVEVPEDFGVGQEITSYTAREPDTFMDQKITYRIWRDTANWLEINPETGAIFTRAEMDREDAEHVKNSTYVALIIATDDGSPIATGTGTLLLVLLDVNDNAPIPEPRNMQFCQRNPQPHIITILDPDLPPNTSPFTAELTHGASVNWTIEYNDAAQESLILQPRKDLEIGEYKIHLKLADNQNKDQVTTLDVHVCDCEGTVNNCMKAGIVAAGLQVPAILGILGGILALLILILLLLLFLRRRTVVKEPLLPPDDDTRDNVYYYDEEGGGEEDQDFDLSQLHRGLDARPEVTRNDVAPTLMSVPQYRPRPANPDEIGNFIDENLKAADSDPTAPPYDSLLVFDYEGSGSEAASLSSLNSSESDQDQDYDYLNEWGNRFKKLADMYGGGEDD
Nature of the assay: immunofluorescence staining of parental 4T1 cells, antibody at 1 µg/mL for 7 hrs.

B1: mouse anti-human E-cad monoclonal antibody mAB-1_19A11 (antibody, V domains shown)
VH: QVQLKESGPGLVAPSQSLSITCTVSGFSLSRYGVHWVRQPPGKGLEWLGMMWGGGNTDYNSALKSRLSISKDNSKSQVFLKMNSLQTDDTAMYYCASSNYVLGYAMDYWGQGTSVTVSS
VL: DIVMTQSPSSLAMSVGQKVTMNCKSSQSLLNSSNQKNYLAWYQQKPGQSPKLLIYFTSTRGSGVPDRFIGSGSGTDFTLTISSVEAEDLADYFCQQHYRTPHTFGGGTKVEIK
notes: also called mAb 19A11
As to B1, the binding result in assay [1] is given as “no binding”.

B2: rabbit anti-mouse E-cad monoclonal antibody mAb-2_18-5 (antibody, mouse IgG1, V domains shown)
VH: EQLEESGGGLVKPGASLTLTCTASGFDLSTYFYMCWVRQAPGKGLEWIACIYVGSTGDTYYANWAKGRFTISKTSSTTVTLQMTSLTDADTATYFCARDIFATGINYYRALWGPGTLVTVSS
VL: AFELTQTPASVEAGVGGTVTIKCQASESINSWLSWYQQKPGQPPTLLIYSASTLASGVPSRFKGSRSGTQFTLTISDLECADAATYYCQSYYGTSTTAFGGGTEVVVK
notes: also called Whole IgG 18.5
Take B2: the binding result in assay [2] and in assay [3] was “binds” each time.

The values above are taken from patent US20220298255A1 (SEATTLE CHILDREN S HOSPITAL D B A SEATTLE CHILDREN S …, published 2022).
